Data as given in US20140087995A1 (published 2014).
Numbered stars: 1 amine (or outer) side, 2 acyl side, 3 side chain; on linkers, the order of the positions; unused ones are H or OH. Bridge positions count the residues as written; N and C are the ends. Side chains are listed from the residue outwards. Ends that are not written are not given here. * marks the point of attachment. C20 diacid = O=C(O)CCCCCCCCCCCCCCCCCCC(=O)*; γGlu = O=C(O)[C@H](CCC(=O)[*:2])N[*:1]; AEEA = NCCOCCOCC(=O)O

T1: human calcitonin receptor (human, UniProt P30988 25-474)
T1 sequence (looked up): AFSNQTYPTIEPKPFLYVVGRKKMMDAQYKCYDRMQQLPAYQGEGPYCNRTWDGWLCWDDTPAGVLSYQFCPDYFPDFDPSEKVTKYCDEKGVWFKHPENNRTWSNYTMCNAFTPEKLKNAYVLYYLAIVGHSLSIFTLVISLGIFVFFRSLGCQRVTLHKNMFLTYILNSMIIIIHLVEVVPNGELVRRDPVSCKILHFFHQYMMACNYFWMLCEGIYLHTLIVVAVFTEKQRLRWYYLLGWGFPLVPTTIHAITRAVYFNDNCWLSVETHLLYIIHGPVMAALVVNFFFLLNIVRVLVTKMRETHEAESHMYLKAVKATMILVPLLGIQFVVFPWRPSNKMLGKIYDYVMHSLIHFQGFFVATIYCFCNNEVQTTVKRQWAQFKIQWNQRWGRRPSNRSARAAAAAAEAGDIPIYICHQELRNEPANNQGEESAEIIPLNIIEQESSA

T2: human amylin receptor (amylin 3(a) receptor: human calcitonin receptor co-expressed with RAMP-3) (human, UniProt P30988 25-474; O60896 24-148, limits assumed)
T2 sequence (looked up) 1: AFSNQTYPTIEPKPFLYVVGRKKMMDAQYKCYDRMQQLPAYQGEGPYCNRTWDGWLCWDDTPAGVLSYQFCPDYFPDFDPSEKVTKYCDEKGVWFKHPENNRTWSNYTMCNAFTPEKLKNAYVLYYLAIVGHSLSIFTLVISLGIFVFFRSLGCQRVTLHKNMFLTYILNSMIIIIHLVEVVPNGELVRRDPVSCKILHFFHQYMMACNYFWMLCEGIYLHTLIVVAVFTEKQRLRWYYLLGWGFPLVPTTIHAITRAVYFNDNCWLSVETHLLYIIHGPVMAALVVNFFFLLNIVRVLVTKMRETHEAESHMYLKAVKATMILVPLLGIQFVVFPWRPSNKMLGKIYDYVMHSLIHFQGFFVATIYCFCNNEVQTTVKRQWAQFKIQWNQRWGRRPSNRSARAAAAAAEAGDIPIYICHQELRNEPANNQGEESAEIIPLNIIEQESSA
T2 sequence (looked up) 2: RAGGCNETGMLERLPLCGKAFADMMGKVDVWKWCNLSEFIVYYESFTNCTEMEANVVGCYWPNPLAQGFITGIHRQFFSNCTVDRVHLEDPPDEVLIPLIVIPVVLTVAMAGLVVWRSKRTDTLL


What was measured:
[1] = target: T1, human calcitonin receptor; assay: cell-based or functional assay
[2] = target: T2, human amylin receptor (amylin 3(a) …); assay: cell-based or functional assay

| Ratio hCT/hAmylin funct. (hCTR EC50 against hAmylin-R EC50) [1] | hCTR funct. EC50 [1] | hAmylin-R funct. EC50 [2] | Binder |
| --- | --- | --- | --- |
| 17.4 | 0.662 nM | 0.038 nM | K([AEEA-γGlu-C20 diacid])CNTATCATQRLANFLRHSSPNFGAIPSSTNVGPNTY-NH2 (disulfide 2-7; N-terminus assumed; SMILES CC[C@H](C)[C@H](NC(=O)[C@H](C)NC(=O)CNC(=O)[C@H](Cc1ccccc1)NC(=O)[C@H](CC(N)=O)NC(=O)[C@@H]1CCCN1C(=O)[C@H](CO)NC(=O)[C@H](CO)NC(=O)[C@H](Cc1c[nH]cn1)NC(=O)[C@H](CCCNC(=N)N)NC(=O)[C@H](CC(C)C)NC(=O)[C@H](Cc1ccccc1)NC(=O)[C@H](CC(N)=O)NC(=O)[C@H](C)NC(=O)[C@H](CC(C)C)NC(=O)[C@H](CCCNC(=N)N)NC(=O)[C@H](CCC(N)=O)NC(=O)[C@@H](NC(=O)[C@H](C)NC(=O)[C@@H]1CSSC[C@H](NC(=O)[C@@H](N)CCCCNC(=O)COCCOCCNC(=O)CC[C@H](NC(=O)CCCCCCCCCCCCCCCCCCC(=O)O)C(=O)O)C(=O)N[C@@H](CC(N)=O)C(=O)N[C@@H]([C@@H](C)O)C(=O)N[C@@H](C)C(=O)N[C@@H]([C@@H](C)O)C(=O)N1)[C@@H](C)O)C(=O)N1CCC[C@H]1C(=O)N[C@@H](CO)C(=O)N[C@@H](CO)C(=O)N[C@H](C(=O)N[C@@H](CC(N)=O)C(=O)N[C@H](C(=O)NCC(=O)N1CCC[C@H]1C(=O)N[C@@H](CC(N)=O)C(=O)N[C@H](C(=O)N[C@@H](Cc1ccc(O)cc1)C(N)=O)[C@@H](C)O)C(C)C)[C@@H](C)O, also called compound 50) |
| 56.3 | 37.5 nM | 0.666 nM | K([AEEA-γGlu-C20 diacid])CNTATCATQRLAKFLRHSSPNFGAIPSSTPVGSNTY-NH2 (disulfide 2-7; N-terminus assumed; SMILES CC[C@H](C)[C@H](NC(=O)[C@H](C)NC(=O)CNC(=O)[C@H](Cc1ccccc1)NC(=O)[C@H](CC(N)=O)NC(=O)[C@@H]1CCCN1C(=O)[C@H](CO)NC(=O)[C@H](CO)NC(=O)[C@H](Cc1c[nH]cn1)NC(=O)[C@H](CCCNC(=N)N)NC(=O)[C@H](CC(C)C)NC(=O)[C@H](Cc1ccccc1)NC(=O)[C@H](CCCCN)NC(=O)[C@H](C)NC(=O)[C@H](CC(C)C)NC(=O)[C@H](CCCNC(=N)N)NC(=O)[C@H](CCC(N)=O)NC(=O)[C@@H](NC(=O)[C@H](C)NC(=O)[C@@H]1CSSC[C@H](NC(=O)[C@@H](N)CCCCNC(=O)COCCOCCNC(=O)CC[C@H](NC(=O)CCCCCCCCCCCCCCCCCCC(=O)O)C(=O)O)C(=O)N[C@@H](CC(N)=O)C(=O)N[C@@H]([C@@H](C)O)C(=O)N[C@@H](C)C(=O)N[C@@H]([C@@H](C)O)C(=O)N1)[C@@H](C)O)C(=O)N1CCC[C@H]1C(=O)N[C@@H](CO)C(=O)N[C@@H](CO)C(=O)N[C@H](C(=O)N1CCC[C@H]1C(=O)N[C@H](C(=O)NCC(=O)N[C@@H](CO)C(=O)N[C@@H](CC(N)=O)C(=O)N[C@H](C(=O)N[C@@H](Cc1ccc(O)cc1)C(N)=O)[C@@H](C)O)C(C)C)[C@@H](C)O, also called compound 74) |
| 13.3 | 1.25 nM | 0.094 nM | K([AEEA-γGlu-C20 diacid])CNTATCATQRLAHFLRHSSPNFGAIPSSTNVGSNTY-NH2 (disulfide 2-7; N-terminus assumed; SMILES CC[C@H](C)[C@H](NC(=O)[C@H](C)NC(=O)CNC(=O)[C@H](Cc1ccccc1)NC(=O)[C@H](CC(N)=O)NC(=O)[C@@H]1CCCN1C(=O)[C@H](CO)NC(=O)[C@H](CO)NC(=O)[C@H](Cc1c[nH]cn1)NC(=O)[C@H](CCCNC(=N)N)NC(=O)[C@H](CC(C)C)NC(=O)[C@H](Cc1ccccc1)NC(=O)[C@H](Cc1c[nH]cn1)NC(=O)[C@H](C)NC(=O)[C@H](CC(C)C)NC(=O)[C@H](CCCNC(=N)N)NC(=O)[C@H](CCC(N)=O)NC(=O)[C@@H](NC(=O)[C@H](C)NC(=O)[C@@H]1CSSC[C@H](NC(=O)[C@@H](N)CCCCNC(=O)COCCOCCNC(=O)CC[C@H](NC(=O)CCCCCCCCCCCCCCCCCCC(=O)O)C(=O)O)C(=O)N[C@@H](CC(N)=O)C(=O)N[C@@H]([C@@H](C)O)C(=O)N[C@@H](C)C(=O)N[C@@H]([C@@H](C)O)C(=O)N1)[C@@H](C)O)C(=O)N1CCC[C@H]1C(=O)N[C@@H](CO)C(=O)N[C@@H](CO)C(=O)N[C@H](C(=O)N[C@@H](CC(N)=O)C(=O)N[C@H](C(=O)NCC(=O)N[C@@H](CO)C(=O)N[C@@H](CC(N)=O)C(=O)N[C@H](C(=O)N[C@@H](Cc1ccc(O)cc1)C(N)=O)[C@@H](C)O)C(C)C)[C@@H](C)O, also called compound 69) |
| 10.9 | 0.554 nM | 0.051 nM | K([AEEA-γGlu-C20 diacid])CNTATCATQRLAHFLRHSSPNFGAIPSSTPVGSNTY-NH2 (disulfide 2-7; N-terminus assumed; SMILES CC[C@H](C)[C@H](NC(=O)[C@H](C)NC(=O)CNC(=O)[C@H](Cc1ccccc1)NC(=O)[C@H](CC(N)=O)NC(=O)[C@@H]1CCCN1C(=O)[C@H](CO)NC(=O)[C@H](CO)NC(=O)[C@H](Cc1c[nH]cn1)NC(=O)[C@H](CCCNC(=N)N)NC(=O)[C@H](CC(C)C)NC(=O)[C@H](Cc1ccccc1)NC(=O)[C@H](Cc1c[nH]cn1)NC(=O)[C@H](C)NC(=O)[C@H](CC(C)C)NC(=O)[C@H](CCCNC(=N)N)NC(=O)[C@H](CCC(N)=O)NC(=O)[C@@H](NC(=O)[C@H](C)NC(=O)[C@@H]1CSSC[C@H](NC(=O)[C@@H](N)CCCCNC(=O)COCCOCCNC(=O)CC[C@H](NC(=O)CCCCCCCCCCCCCCCCCCC(=O)O)C(=O)O)C(=O)N[C@@H](CC(N)=O)C(=O)N[C@@H]([C@@H](C)O)C(=O)N[C@@H](C)C(=O)N[C@@H]([C@@H](C)O)C(=O)N1)[C@@H](C)O)C(=O)N1CCC[C@H]1C(=O)N[C@@H](CO)C(=O)N[C@@H](CO)C(=O)N[C@H](C(=O)N1CCC[C@H]1C(=O)N[C@H](C(=O)NCC(=O)N[C@@H](CO)C(=O)N[C@@H](CC(N)=O)C(=O)N[C@H](C(=O)N[C@@H](Cc1ccc(O)cc1)C(N)=O)[C@@H](C)O)C(C)C)[C@@H](C)O, also called compound 61) |
| 17.4 | 0.932 nM | 0.054 nM | K([AEEA-γGlu-C20 diacid])CNTATCATQRLAHFLRHSSPNFGAIPSSTNVGPNTY-NH2 (disulfide 2-7; N-terminus assumed; SMILES CC[C@H](C)[C@H](NC(=O)[C@H](C)NC(=O)CNC(=O)[C@H](Cc1ccccc1)NC(=O)[C@H](CC(N)=O)NC(=O)[C@@H]1CCCN1C(=O)[C@H](CO)NC(=O)[C@H](CO)NC(=O)[C@H](Cc1c[nH]cn1)NC(=O)[C@H](CCCNC(=N)N)NC(=O)[C@H](CC(C)C)NC(=O)[C@H](Cc1ccccc1)NC(=O)[C@H](Cc1c[nH]cn1)NC(=O)[C@H](C)NC(=O)[C@H](CC(C)C)NC(=O)[C@H](CCCNC(=N)N)NC(=O)[C@H](CCC(N)=O)NC(=O)[C@@H](NC(=O)[C@H](C)NC(=O)[C@@H]1CSSC[C@H](NC(=O)[C@@H](N)CCCCNC(=O)COCCOCCNC(=O)CC[C@H](NC(=O)CCCCCCCCCCCCCCCCCCC(=O)O)C(=O)O)C(=O)N[C@@H](CC(N)=O)C(=O)N[C@@H]([C@@H](C)O)C(=O)N[C@@H](C)C(=O)N[C@@H]([C@@H](C)O)C(=O)N1)[C@@H](C)O)C(=O)N1CCC[C@H]1C(=O)N[C@@H](CO)C(=O)N[C@@H](CO)C(=O)N[C@H](C(=O)N[C@@H](CC(N)=O)C(=O)N[C@H](C(=O)NCC(=O)N1CCC[C@H]1C(=O)N[C@@H](CC(N)=O)C(=O)N[C@H](C(=O)N[C@@H](Cc1ccc(O)cc1)C(N)=O)[C@@H](C)O)C(C)C)[C@@H](C)O, also called compound 68) |
| 9.4 | 0.527 nM | 0.056 nM | K([AEEA-γGlu-C20 diacid])CNTATCATQRLAGFLRHSSPNFGAIPSSTPVGSNTY-NH2 (disulfide 2-7; N-terminus assumed; SMILES CC[C@H](C)[C@H](NC(=O)[C@H](C)NC(=O)CNC(=O)[C@H](Cc1ccccc1)NC(=O)[C@H](CC(N)=O)NC(=O)[C@@H]1CCCN1C(=O)[C@H](CO)NC(=O)[C@H](CO)NC(=O)[C@H](Cc1c[nH]cn1)NC(=O)[C@H](CCCNC(=N)N)NC(=O)[C@H](CC(C)C)NC(=O)[C@H](Cc1ccccc1)NC(=O)CNC(=O)[C@H](C)NC(=O)[C@H](CC(C)C)NC(=O)[C@H](CCCNC(=N)N)NC(=O)[C@H](CCC(N)=O)NC(=O)[C@@H](NC(=O)[C@H](C)NC(=O)[C@@H]1CSSC[C@H](NC(=O)[C@@H](N)CCCCNC(=O)COCCOCCNC(=O)CC[C@H](NC(=O)CCCCCCCCCCCCCCCCCCC(=O)O)C(=O)O)C(=O)N[C@@H](CC(N)=O)C(=O)N[C@@H]([C@@H](C)O)C(=O)N[C@@H](C)C(=O)N[C@@H]([C@@H](C)O)C(=O)N1)[C@@H](C)O)C(=O)N1CCC[C@H]1C(=O)N[C@@H](CO)C(=O)N[C@@H](CO)C(=O)N[C@H](C(=O)N1CCC[C@H]1C(=O)N[C@H](C(=O)NCC(=O)N[C@@H](CO)C(=O)N[C@@H](CC(N)=O)C(=O)N[C@H](C(=O)N[C@@H](Cc1ccc(O)cc1)C(N)=O)[C@@H](C)O)C(C)C)[C@@H](C)O, also called compound 71) |
